# In patent US20190263905A1 (DINONA, published 2019):
# Changes are numbered by the printed parent chain.
# T1: Antigen CD66c (CEACAM6; Sino Biological, Inc.) (UniProt P40199 35-320)
# T1 construct: Bought antigen coated on the ELISA plate; construct not described; also called CD66c antigen; CECACAM6
# T1 sequence (looked up): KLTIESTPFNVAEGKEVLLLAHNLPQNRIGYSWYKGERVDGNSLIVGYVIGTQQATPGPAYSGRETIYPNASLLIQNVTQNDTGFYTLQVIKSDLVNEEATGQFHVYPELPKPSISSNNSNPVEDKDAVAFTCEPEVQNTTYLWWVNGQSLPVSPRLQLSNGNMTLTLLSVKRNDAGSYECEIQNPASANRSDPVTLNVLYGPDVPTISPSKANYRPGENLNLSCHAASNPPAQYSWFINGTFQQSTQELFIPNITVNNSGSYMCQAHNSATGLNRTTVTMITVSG
# T2: CEACAM1 antigen (Sino Biological, Inc.) (UniProt P13688 35-428)
# T2 construct: Bought antigen coated on the ELISA plate; construct not described; also called CEACAM1 (CD66a) antigen; CD66a
# T2 sequence (looked up): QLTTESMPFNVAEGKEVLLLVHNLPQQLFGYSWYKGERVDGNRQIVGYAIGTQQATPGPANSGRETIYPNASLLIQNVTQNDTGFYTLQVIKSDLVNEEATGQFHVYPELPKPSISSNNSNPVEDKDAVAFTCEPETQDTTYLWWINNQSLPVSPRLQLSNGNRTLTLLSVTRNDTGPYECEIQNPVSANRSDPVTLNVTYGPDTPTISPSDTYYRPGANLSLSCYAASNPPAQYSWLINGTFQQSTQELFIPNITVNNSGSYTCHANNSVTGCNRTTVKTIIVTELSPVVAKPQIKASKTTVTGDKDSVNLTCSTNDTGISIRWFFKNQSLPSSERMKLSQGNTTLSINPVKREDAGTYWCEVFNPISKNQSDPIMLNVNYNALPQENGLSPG
# T3: CD66c (CEACAM6) on CD66c-positive A549 non-small-cell lung cancer cells (UniProt P40199 35-320, limits assumed)
# T3 construct: whole, on cells; also called CD66c antigen; NCA-90
# T3 sequence (looked up): T1 sequence (looked up)
# B1: recombinant humanized anti-CD66c antibody Protein ID 3058 (Vk8 + VH11) (antibody, human IgG1, V domains shown)
# VH: QVQLVQSGAEVKKPGASVKISCKASGYSFTDYTMHWVKQAPGQNLEWIGLINPFGGSTSYAQKFKGRVTMTRDTSTNTAYMELSRLRSDDTAVYYCVRGDPVRHYYALAYWGQGTLVTVSS
# VL: DIQMTQSPSTLSASVGDRVTITCRASENVYGTLNWYQRKPGKAPKLLIYGATNLADGMPSRFSGSGSGTEYTLTISSLQPDDFATYYCQNVLSAPYTFGGGTKLEIK
# notes: also called hu 3058; #86
# B2: recombinant humanized anti-CD66c antibody Protein ID 3007 (Vk7 + VH6) (antibody, human IgG1, V domains shown)
# VH: QVQLVQSGAEVKKPGASMKISCKASGYSFTDYTMNWVKQAPGQNLEWIGLINPFHGGTVSNQRFKVKATLTVDVSTNTAYMELSRLRSDDTAVYYCVRGDPVRHYYALAYWGQGTLVTVSS
# VL: B1 VL with R24G, M58V
# notes: also called hu 3007; #43
# B3: recombinant humanized anti-CD66c antibody Protein ID 2938 (Vk5 + VH7) (antibody, human IgG1, V domains shown)
# VH: B2 VH with K38R, N44G
# VL: B1 VL with R24G, N34A, M58V, T69R
# notes: also called hu 2938
# B4: recombinant humanized anti-CD66c antibody Protein ID 3043 (Vk8 + VH6) (antibody, human IgG1, V domains shown)
# VH: B2 VH
# VL: B1 VL
# notes: also called hu 3043; #71
# B5: anti-CD66c chimeric antibody 8F5 (antibody, human IgG1, V domains shown)
# VH: EVQLQQSGPELVKPGASMKISCKASGYSFTDYTMNWVKQSHGKNLEWIGLINPFHGGTVSNQRFKVKATLTVDVSSNTAYMELLSLTSDDSAVYYCVRGDPVRHYYALAYWGQGTSVTVSS
# VL: DIQMTQSPASLSASVGETVTITCGASENVYGTLNWYQRKQGKSPQLLIYGATNLADGMSSRFSGSGSGRQYSLKISSLHPDDVATYYCQNVLSAPYTFGGGTKLEII
# notes: also called chimeric 8F5 antibody; chi 8F5
# Molecular target: T1, Antigen CD66c (CEACAM6; Sino …)
# Assay: ELISA, coated CEACAM6 100 ng/well, antibody 0.51 ng/ml
# Experimental: (§1) Antigen CD66c (CEACAM6; Sino Biological, Inc.) and CEACAM1 antigen (Sino Biological, Inc.) were coated on a 96-well plate at 100 ng per well and then blocked. The primary antibody was diluted serially three fold from 10 ug/ml at initial concentration and was bound at 37° C. for 1 hour, and goat anti-Human Ig-HRP conjugate (Jackson ImmunoResearch) as a secondary antibody was diluted 1:10,000 and incubated at 37° C. for 30 minutes. The washing was carried out at three times between each step, and the TMB reaction was performed, stopped with 1N H₂SO₄ solution at the same amount of TMB solution (100 ul) and then OD value was measured at 450 nm.
# (§2) As a result of the experiment, the binding affinities to CD66c antigen of the five kinds of recombinant humanized antibodies selected from among 96 kinds of recombinant humanized antibodies are shown in FIG. 4a, Table 12, FIG. 4b and Table 13. FIG. 4a and Table 12 show the binding capacity of the antibodies to CECACAM6 CD66c) antigen, and FIG. 4b and Table 13 are the results for the CEACAM1 (CD66a) antigen.
row,Binder,OD 450 nm [OD]
1,B1,0.38
2,B2,0.64
3,B3,0.36
4,B4,0.49
5,B5,0.41

# Molecular target: T1, Antigen CD66c (CEACAM6; Sino …)
# Assay: ELISA, coated CEACAM6 100 ng/well, antibody 4.57 ng/ml
# Experimental: as §1, §2
row,Binder,OD 450 nm [OD]
1,B1,0.74
2,B2,1.02
3,B3,0.65
4,B4,0.91
5,B5,0.8

# Molecular target: T2, CEACAM1 antigen (Sino Biological, Inc.)
# Assay: ELISA, coated CEACAM1 100 ng/well, antibody 0.17 ng/ml
# Experimental: as §1, §2
row,Binder,OD 450 nm [OD]
1,B1,0.04
2,B2,0.09
3,B3,0.04
4,B4,0.08
5,B5,0.08

# Molecular target: T2, CEACAM1 antigen (Sino Biological, Inc.)
# Assay: ELISA, coated CEACAM1 100 ng/well, antibody 4.57 ng/ml
# Experimental: as §1, §2
row,Binder,OD 450 nm [OD]
1,B1,0.05
2,B2,0.27
3,B3,0.05
4,B4,0.27
5,B5,0.28

# Molecular target: T2, CEACAM1 antigen (Sino Biological, Inc.)
# Assay: ELISA, coated CEACAM1 100 ng/well, antibody 13.72 ng/ml
# Experimental: as §1, §2
row,Binder,OD 450 nm [OD]
1,B1,0.05
2,B2,0.46
3,B3,0.06
4,B4,0.43
5,B5,0.51

# Molecular target: T2, CEACAM1 antigen (Sino Biological, Inc.)
# Assay: ELISA, coated CEACAM1 100 ng/well, antibody 41.15 ng/ml
# Experimental: as §1, §2
row,Binder,OD 450 nm [OD]
1,B1,0.07
2,B2,0.66
3,B3,0.07
4,B4,0.61
5,B5,0.82

# Molecular target: T1, Antigen CD66c (CEACAM6; Sino …)
# Assay: ELISA, coated CEACAM6 100 ng/well, antibody 123.46 ng/ml
# Experimental: as §1, §2
row,Binder,OD 450 nm [OD]
1,B1,2.22
2,B2,2.9
3,B3,2.56
4,B4,2.29
5,B5,2.83

# Molecular target: T2, CEACAM1 antigen (Sino Biological, Inc.)
# Assay: ELISA, coated CEACAM1 100 ng/well, antibody 370.37 ng/ml
# Experimental: as §1, §2
row,Binder,OD 450 nm [OD]
1,B1,0.12
2,B2,0.92
3,B3,0.14
4,B4,0.8
5,B5,1.13

# Molecular target: T1, Antigen CD66c (CEACAM6; Sino …)
# Assay: ELISA, coated CEACAM6 100 ng/well, antibody 1111.11 ng/ml
# Experimental: as §1, §2
row,Binder,OD 450 nm [OD]
1,B1,3.19
2,B2,3.23
3,B3,3.16
4,B4,2.74
5,B5,3.3

# Molecular target: T1, Antigen CD66c (CEACAM6; Sino …)
# Assay: ELISA, coated CEACAM6 100 ng/well, antibody 10000.00 ng/ml
# Experimental: as §1, §2
row,Binder,OD 450 nm [OD]
1,B1,2.87
2,B2,3.37
3,B3,3.43
4,B4,2.73
5,B5,3.17

# Molecular target: T3, CD66c (CEACAM6) on CD66c-positive A549 …
# Assay: flow cytometry on CD66c-positive A549 cells, FITC anti-human IgG
# Experimental: Each expressed 96 recombinant humanized antibody was poured and reacted in a test tube containing the same amount ([…]) of CD66c-positive A549 non-small-cell lung cancer cell line at 4° C. for 30 minutes, washed with PBS, and treated with FITC-conjugated goat anti-Human IgG (DiNona Inc, Korea) was added and incubated at 4° C. for 15 minutes. After washing with PBS, the cells were analyzed with a flow cytometer (Stratedigm, S1000EXi) and the results are shown below.
# Among the 96 recombinant humanized antibody candidates, eight were firstly selected based on the degree of expression, the presence of aggregation, and the degree of cell binding (Table 9 and Table 10, FIGS. 3A to 3E).
row,Binder,% gated [%]
1,B1,72
2,B2,71
3,B3,71
4,B4,69
5,B5,73
